US20200232972A1, “METHOD FOR SCREENING ANTI-AGING SUBSTANCES” (Shiseido Company, Ltd., priority 2017, published 2020)

Test system: young fibroblasts (MMP1 and collagen expression)
Assay: Addition of senescence factor proteins to young fibroblasts: MMP1 and collagen gene expression by RT-PCR
Type: cell-based, Homo sapiens
Settings: protein added at 10 μg/ml vs 0 μg/ml, 2 days; for MMP1 expression: FIG. 4(A); for expression of collagen (Collagen 1 gene): FIG. 4(B)
Experimental: Dermal fibroblasts established from skin from the back of an adult were cultured in Dulbecco's Modified Eagle Medium supplemented with 10% FBS. Cells with a culture period of less than 1 month and Pdl<30 were used as normal fibroblasts (young fibroblasts). These cells were cultured for 3 months or more and cells which began to proliferate more slowly (doubling time less than 0.5/week and Pdl>50) were used as senescent cells. Normal fibroblasts were inoculated on the upper layer of a 6-well transwell system (Falcon; Franklin Lakes, N.J.) filled with Dulbecco's Modified Eagle Medium supplemented with 10% FBS until the density was 1250 cell/cm^2. Subconstructed senescent fibroblasts and normal fibroblasts were separately inoculated in two wells of the lower layer of the transwell system. The upper layer and the lower layer of the transwell system were combined and cultured for 2 days at 37° C. in a humidified atmosphere with 5% CO2, and the cells in the upper layer and the lower layer were recovered using Qiazole (Qiagen).
RNA was extracted from the recovered cell lysate using RNeasy Protect Kit (Qiagen) by following the instructions therefor, then Superscript VILO (Invitrogen) was used to reverse transcribe the RNA into cDNA by following the instructions. Using 28SrRNA as an internal standard, real time PCR was performed with LightCycler (commercially available) using the primer pairs for the following genes. The cycle threshold (Ct value) calculated by Lightcycler software ver. 3.5 was normalized for GAPDH mRNA of each sample.
The proteins of the candidate senescence factors (IGFBP7 and RSPO4) (purchased from Serotec, R&D SYSTEMS) were added to the culture medium for culturing the young fibroblasts at a concentration of 0 μg/ml and 10 μg/ml. After culturing for 2 days, the cells were then separately recovered using Qiazole (Qiagen). In the same way as disclosed in the section relating to quantitative RT-PCR, the expression levels of MMP1 and collagen were examined in the recovered cell lysate.

B1: IGFBP7: Homo sapiens insulin-like growth factor binding protein 7 protein, purchased (Serotec, R&D SYSTEMS), candidate senescence factor (protein, UniProt Q16270 27-282, looked up)
Insulin-like growth …: SSSDTCGPCEPASCPPLPPLGCLLGETRDACGCCPMCARGEGEPCGGGGAGRGYCAPGMECVKSRKRRKGKAGAAAGGPGVSGVCVCKSRYPVCGSDGTTYPSGCQLRAASQRAESRGEKAITQVSKGTCEQGPSIVTPPKDIWNVTGAQVYLSCEVIGIPTPVLIWNKVKRGHYGVQRTELLPGDRDNLAIQTRGGPEKHEVTGWVLVSPLSKEDAGEYECHASNSQGQASASAKITVVDALHEIPVKKGEGAEL
- MMP1 expression: increased
- expression of collagen (Collagen 1 gene): reduced

B2: RSPO4: Homo sapiens R-spondin family, member 4 protein, purchased (Serotec, R&D SYSTEMS), candidate senescence factor (protein, UniProt Q2I0M5 20-234, looked up)
R-spondin-4: LNRRKKQVGTGLGGNCTGCIICSEENGCSTCQQRLFLFIRREGIRQYGKCLHDCPPGYFGIRGQEVNRCKKCGATCESCFSQDFCIRCKRQFYLYKGKCLPTCPPGTLAHQNTRECQGECELGPWGGWSPCTHNGKTCGSAWGLESRVREAGRAGHEEAATCQVLSESRKCPIQRPCPGERSPGQKKGRKDRRPRKDRKLDRRLDVRPRQPGLQP
- MMP1 expression: increased
- expression of collagen (Collagen 1 gene): reduced
